The target in assay [1] is T1, Anti-CD28 Fab (SEQ ID NOs: 696, 697).
T1 construct: In the phage ELISA the Fab was biotinylated and captured on neutravidin coated plates
As to the kind of experiment: phage ELISA; biotinylated anti-CD28 Fab on neutravidin plate, clonal phage supernatant, anti-M13 HRP detection.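 Note: before phage addition, wells were pretreated with either CD28 antigen in blocking buffer or only blocking buffer, and phage was added without an intervening wash.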 On the technique in general: ELISA stands for enzyme-linked immunosorbent assay.
T1 sequence (VH, as listed by the source, chain 1 of 2): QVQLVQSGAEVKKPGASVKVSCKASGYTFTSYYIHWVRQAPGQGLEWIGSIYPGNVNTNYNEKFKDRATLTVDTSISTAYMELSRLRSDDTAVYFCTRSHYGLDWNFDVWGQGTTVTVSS
T1 sequence (VL, as listed by the source, chain 2 of 2): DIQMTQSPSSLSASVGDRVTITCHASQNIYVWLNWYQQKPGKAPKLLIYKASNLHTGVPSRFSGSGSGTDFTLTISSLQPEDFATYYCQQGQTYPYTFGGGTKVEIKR
Procedure: (§1) Clonal phage were harvested as crude supematants and screened via standard ELISAs. […] Prior to the addition of clonal phage, wells were incubated with blocking buffer and CD28 antigen or blocking buffer alone. Without washing or aspirating, clonal phage supematants were then added to the wells and incubated for a short time. Wells were then washed followed by detection of bound phage using a horse radish conjugated anti-M13 antibody.

For assay [2] the target is unchanged. As to the kind of experiment: phage ELISA; Fab-coated wells pre-incubated with CD28 antigen as competitor, clonal phage supernatant, anti-M13 HRP detection.
Target sequence in this assay (VH, as listed by the source, chain 1 of 2): as the sequence (VH, as listed by the source, chain 1 of 2) above
Target sequence in this assay (VL, as listed by the source, chain 2 of 2): as the sequence (VL, as listed by the source, chain 2 of 2) above
Procedure: as §1
Assay [3] addresses Anti-CD28 Fab (SEQ ID NOs: 696, 697). As to the kind of experiment: phage binding ELISA; biotinylated anti-CD28 Fab on neutravidin plate, clonal phage supernatant, anti-M13 HRP detection.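 Note: wells pretreated with blocking buffer, either plus or minus CD28 antigen, then given crude phage supernatant briefly without washing in between, then washed before anti-M13 HRP readout.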
Target sequence in this assay (VH, as listed by the source, chain 1 of 2): as the sequence (VH, as listed by the source, chain 1 of 2) above
Target sequence in this assay (VL, as listed by the source, chain 2 of 2): as the sequence (VL, as listed by the source, chain 2 of 2) above
Procedure: as §1
Assay [4] has the same target. Nature of the assay: phage binding ELISA; Fab-coated wells pre-incubated with CD28 antigen as competitor, anti-M13 HRP detection.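 Note: crude clonal phage supernatants added without washing after the CD28 pre-incubation, with wells given blocking buffer only (no CD28) as the reference, bound phage read after washing.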
Target sequence in this assay (VH, as listed by the source, chain 1 of 2): as the sequence (VH, as listed by the source, chain 1 of 2) above
Target sequence in this assay (VL, as listed by the source, chain 2 of 2): as the sequence (VL, as listed by the source, chain 2 of 2) above
Procedure: Clonal phage were harvested as crude supematants and screened via standard ELISAs. […] Prior to the addition of clonal phage, wells were incubated with blocking buffer and CD28 antigen or blocking buffer alone. Without washing or aspirating, clonal phage supematants were then added to the wells and incubated for a short time. Wells were then washed followed by detection of bound phage using a horse radish conjugated anti-M13 antibody. Clonal phage of interest were then sent for sequence analysis.
For assay [5] the target is unchanged. Nature of the assay: phage binding ELISA; biotinylated anti-CD28 Fab on neutravidin plate, clonal phage detected with anti-M13 HRP.
Target sequence in this assay (VH, as listed by the source, chain 1 of 2): as the sequence (VH, as listed by the source, chain 1 of 2) above
Target sequence in this assay (VL, as listed by the source, chain 2 of 2): as the sequence (VL, as listed by the source, chain 2 of 2) above
Procedure: as §1
Assay [6] shares this target. As to the kind of experiment: phage binding ELISA; anti-CD28 Fab on plate pre-incubated with CD28 antigen as competitor.
Target sequence in this assay (VH, as listed by the source, chain 1 of 2): as the sequence (VH, as listed by the source, chain 1 of 2) above
Target sequence in this assay (VL, as listed by the source, chain 2 of 2): as the sequence (VL, as listed by the source, chain 2 of 2) above
Procedure: as §1

Where no end group is shown, it is not given here.

B1: Phage-1493 (Peptide-92 library clone, SEQ ID NO: 1789) (peptide)
peptide: SCAAGAHYVWPFCF
notes: Tested as clonal phage supernatant; not shown: fused to pIII of the bacteriophage
Regarding B1, in assay [1], the “Phage binding ELISA, Anti-CD28 Fab signal” value was determined as 1.68. Also, in assay [2], the “Phage binding ELISA, Anti-CD28 Fab signal in the presence of CD28” value (from here on “Phage binding ELISA … of CD28”) turned out to be 0.08.

B2: Phage-1500 (Peptide-92 library clone, SEQ ID NO: 1796) (peptide)
peptide: LCAAGANYPWPACL
notes: as for B1
For B2, in assay [1], the “Phage binding ELISA, Anti-CD28 Fab signal” value was 1.66. The “Phage binding ELISA … of CD28” value in assay [2] came to 0.07.
Regarding MCSAGANYPWPWCL [Phage-1426], the “Anti-CD28 Fab (SEQ ID NOs: 696, 697) signal” value in assay [3] stood at 1.97. Also, the “Anti-CD28 Fab signal in the presence of CD28” value in assay [4] was 0.08.
Regarding MCAAGAHYTWPTCL (cysteine pairing not given here; also: fused to phage pIII protein) [Phage-1424], the “Anti-CD28 Fab (SEQ ID NOs: 696, 697) signal” value in assay [3] was 1.97. In addition, in assay [4], the “Anti-CD28 Fab signal in the presence of CD28” value stood at 0.07.
As for SCAAVFSYSWPMCF [Phage-1420], the “Anti-CD28 Fab (SEQ ID NOs: 696, 697) signal” value in assay [3] is 1.99. Moreover, in assay [4], the “Anti-CD28 Fab signal in the presence of CD28” value amounted to 0.06.
On to SCSAGFHYPWPICL [Phage-1464 peptide (Peptide-92 library, SEQ ID NO: 1760)], for which, in assay [5], the “Anti-CD28 Fab (SEQ ID NOs: 696, 697) signal” value came to 1.79. Moreover, the “Anti-CD28 Fab signal in the presence of CD28” value in assay [6] was 0.07.
On to GCAAGAHYPWPFCL [Phage-1472 peptide (Peptide-92 library, SEQ ID NO: 1768)], for which the “Anti-CD28 Fab (SEQ ID NOs: 696, 697) signal” value in assay [5] was 1.76. For the same molecule, the “Anti-CD28 Fab signal in the presence of CD28” value in assay [6] is 0.06.
In the same order, the values of LCTAGLAYNWPTCL [Phage-1471 peptide (Peptide-92 library, SEQ ID NO: 1767)] are 1.77 and 0.05.

B3: Phage-1498 (Peptide-92 library clone, SEQ ID NO: 1794) (peptide)
peptide: LCSAGAMYPWPLCY
notes: as for B1
B3: the “Phage binding ELISA, Anti-CD28 Fab signal” value in assay [1] was found to be 1.66. In addition, in assay [2], the “Phage binding ELISA … of CD28” value came to 0.08.
For LCAEFFNYPWPLCL [Phage-1422], the “Anti-CD28 Fab (SEQ ID NOs: 696, 697) signal” value in assay [3] worked out at 1.98. Moreover, the “Anti-CD28 Fab signal in the presence of CD28” value in assay [4] was found to be 0.06.
Consider TCAAGAHYTWPECF [Phage-1419], for which, in assay [3], the “Anti-CD28 Fab (SEQ ID NOs: 696, 697) signal” value is 1.99. In addition, the “Anti-CD28 Fab signal in the presence of CD28” value in assay [4] was 0.07.
As for WCAEFFNYHWPLCF [Phage-1468 peptide (Peptide-92 library, SEQ ID NO: 1764)], the “Anti-CD28 Fab (SEQ ID NOs: 696, 697) signal” value in assay [5] is 1.77. Further, the “Anti-CD28 Fab signal in the presence of CD28” value in assay [6] amounted to 0.06.
For WCAAVFSYTWSPCL [Phage-1428], the “Anti-CD28 Fab (SEQ ID NOs: 696, 697) signal” value in assay [3] came out at 1.96. Further, the “Anti-CD28 Fab signal in the presence of CD28” value in assay [4] turned out to be 0.07.

B4: Phage-1501 (Peptide-92 library clone, SEQ ID NO: 1797) (peptide)
peptide: SCAAGATYTWPMCI
notes: as for B1
On to B4, for which the “Phage binding ELISA, Anti-CD28 Fab signal” value in assay [1] was found to be 1.66. In addition, the “Phage binding ELISA … of CD28” value in assay [2] turned out to be 0.07.
With TCSAGFSLQLSICL [Phage-1469 peptide (Peptide-92 library, SEQ ID NO: 1765)], the “Anti-CD28 Fab (SEQ ID NOs: 696, 697) signal” value in assay [5] was 1.77. The “Anti-CD28 Fab signal in the presence of CD28” value in assay [6] came to 0.06.
On to TCAAGANYPWPLCL [Phage-1474 peptide (Peptide-92 library, SEQ ID NO: 1770)], for which the “Anti-CD28 Fab (SEQ ID NOs: 696, 697) signal” value in assay [5] worked out at 1.75. The “Anti-CD28 Fab signal in the presence of CD28” value in assay [6] was found to be 0.08.

B5: Phage-1492 (Peptide-92 library clone, SEQ ID NO: 1788) (peptide)
peptide: TCSAGAHFAWPMCF
notes: as for B1
For B5, the “Phage binding ELISA, Anti-CD28 Fab signal” value in assay [1] is 1.69. The “Phage binding ELISA … of CD28” value in assay [2] came to 0.07.
In the case of TCAAGAHYPWPYCL [Phage-1467 peptide (Peptide-92 library, SEQ ID NO: 1763)], in assay [5], the “Anti-CD28 Fab (SEQ ID NOs: 696, 697) signal” value is 1.77. In addition, the “Anti-CD28 Fab signal in the presence of CD28” value in assay [6] was 0.05.

B6: Phage-1491 (Peptide-92 library clone, SEQ ID NO: 1787) (peptide)
peptide: TCSAGAHWTWPLCF
notes: as for B1
In the case of B6, the “Phage binding ELISA, Anti-CD28 Fab signal” value in assay [1] came to 1.69. Also, the “Phage binding ELISA … of CD28” value in assay [2] came to 0.06.
Regarding LCKPGVPYQWPTCL [Phage-1465 peptide (Peptide-92 library, SEQ ID NO: 1761)], the “Anti-CD28 Fab (SEQ ID NOs: 696, 697) signal” value in assay [5] was determined as 1.78. Also, in assay [6], the “Anti-CD28 Fab signal in the presence of CD28” value is 0.07.
On to TCAAGASYQWPLCF [Phage-1462 peptide (Peptide-92 library, SEQ ID NO: 1758)], for which the “Anti-CD28 Fab (SEQ ID NOs: 696, 697) signal” value in assay [5] was found to be 1.79. Further, the “Anti-CD28 Fab signal in the presence of CD28” value in assay [6] turned out to be 0.07.

B7: Phage-1503 (Peptide-92 library clone, SEQ ID NO: 1799) (peptide)
peptide: TCAAGAGWAWPFCF
notes: as for B1
As for B7, the “Phage binding ELISA, Anti-CD28 Fab signal” value in assay [1] was 1.65. Moreover, in assay [2], the “Phage binding ELISA … of CD28” value was determined as 0.09.

B8: Phage-1495 (Peptide-92 library clone, SEQ ID NO: 1791) (peptide)
peptide: TCSAGASYPWPVCL
notes: as for B1
In the case of B8, the “Phage binding ELISA, Anti-CD28 Fab signal” value in assay [1] was 1.67. Further, the “Phage binding ELISA … of CD28” value in assay [2] worked out at 0.07.
Consider SCAAGATYSWPMCL [Phage-1421], for which, in assay [3], the “Anti-CD28 Fab (SEQ ID NOs: 696, 697) signal” value is 1.99. Further, in assay [4], the “Anti-CD28 Fab signal in the presence of CD28” value amounted to 0.09.
In the same order, the values of TCAAGATYEWPTCL [Phage-1430] are 1.96 and 0.08.
With YCSAGAQWPWPICL [Phage-1461 peptide (Peptide-92 library, SEQ ID NO: 1757)], the “Anti-CD28 Fab (SEQ ID NOs: 696, 697) signal” value in assay [5] came to 1.79. The “Anti-CD28 Fab signal in the presence of CD28” value in assay [6] was 0.08.

B9: Phage-1502 (Peptide-92 library clone, SEQ ID NO: 1798) (peptide)
peptide: SCAAGLSYPWPDCL
notes: as for B1
For B9, the “Phage binding ELISA, Anti-CD28 Fab signal” value in assay [1] was found to be 1.65. For the same molecule, in assay [2], the “Phage binding ELISA … of CD28” value was found to be 0.07.

B10: Phage-1490 (Peptide-92 library clone, SEQ ID NO: 1786) (peptide)
peptide: RCAAGVMYDWPVCL
notes: as for B1
For B10, in assay [1], the “Phage binding ELISA, Anti-CD28 Fab signal” value was determined as 1.7. In addition, the “Phage binding ELISA … of CD28” value in assay [2] is 0.07.
As to SCAAGASYPWPQCL [Phage-1470 peptide (Peptide-92 library, SEQ ID NO: 1766)], the “Anti-CD28 Fab (SEQ ID NOs: 696, 697) signal” value in assay [5] was found to be 1.77. In addition, in assay [6], the “Anti-CD28 Fab signal in the presence of CD28” value came to 0.11.

B11: Phage-1494 (Peptide-92 library clone, SEQ ID NO: 1790) (peptide)
peptide: TCSAGATYNWPWCF
notes: as for B1
On to B11, for which the “Phage binding ELISA, Anti-CD28 Fab signal” value in assay [1] is 1.68. In addition, in assay [2], the “Phage binding ELISA … of CD28” value worked out at 0.05.
Consider SCAAGASYSWPACF [Phage-1463 peptide (Peptide-92 library, SEQ ID NO: 1759)], for which the “Anti-CD28 Fab (SEQ ID NOs: 696, 697) signal” value in assay [5] came to 1.79. For the same molecule, the “Anti-CD28 Fab signal in the presence of CD28” value in assay [6] was found to be 0.07.

B12: Phage-1499 (Peptide-92 library clone, SEQ ID NO: 1795) (peptide)
peptide: TCAAGAMWVWPTCL
notes: as for B1
Take B12: the “Phage binding ELISA, Anti-CD28 Fab signal” value in assay [1] amounted to 1.66. The “Phage binding ELISA … of CD28” value in assay [2] came out at 0.07.
Regarding TCAAGAAYTWPACF [Phage-1429], in assay [3], the “Anti-CD28 Fab (SEQ ID NOs: 696, 697) signal” value came to 1.96. Besides, the “Anti-CD28 Fab signal in the presence of CD28” value in assay [4] came out at 0.06.

B13: Phage-1496 (Peptide-92 library clone, SEQ ID NO: 1792) (peptide)
peptide: WCAAGAMYPWPLCL
notes: as for B1
As for B13, in assay [1], the “Phage binding ELISA, Anti-CD28 Fab signal” value turned out to be 1.67. Also, the “Phage binding ELISA … of CD28” value in assay [2] is 0.06.
Take TCAAGATYEWPYCF [Phage-1427]: the “Anti-CD28 Fab (SEQ ID NOs: 696, 697) signal” value in assay [3] turned out to be 1.96. The “Anti-CD28 Fab signal in the presence of CD28” value in assay [4] is 0.06.
As to TCAAGAVWEWPMCF [Phage-1473 peptide (Peptide-92 library, SEQ ID NO: 1769)], the “Anti-CD28 Fab (SEQ ID NOs: 696, 697) signal” value in assay [5] worked out at 1.76. For the same molecule, in assay [6], the “Anti-CD28 Fab signal in the presence of CD28” value stood at 0.07.
In the same order, the values of MCTAGALYNWPTCL [Phage-1466 peptide (Peptide-92 library, SEQ ID NO: 1762)] are 1.78 and 0.09.
Consider QCSAGAAWPWPFCL [Phage-1423], for which, in assay [3], the “Anti-CD28 Fab (SEQ ID NOs: 696, 697) signal” value was found to be 1.97. Also, in assay [4], the “Anti-CD28 Fab signal in the presence of CD28” value worked out at 0.08.
Turning to TCAAGATYSWPWCF [Phage-1418], the “Anti-CD28 Fab (SEQ ID NOs: 696, 697) signal” value in assay [3] amounted to 1.99. Moreover, the “Anti-CD28 Fab signal in the presence of CD28” value in assay [4] amounted to 0.07.

B14: Phage-1497 (Peptide-92 library clone, SEQ ID NO: 1793) (peptide)
peptide: LCNAGAPYKWPTCL
notes: as for B1
In the case of B14, in assay [1], the “Phage binding ELISA, Anti-CD28 Fab signal” value came out at 1.66. In addition, the “Phage binding ELISA … of CD28” value in assay [2] was 0.07.
For TCSAGATYEWPWCM [Phage-1425], the “Anti-CD28 Fab (SEQ ID NOs: 696, 697) signal” value in assay [3] is 1.97. Besides, the “Anti-CD28 Fab signal in the presence of CD28” value in assay [4] came to 0.07.

Values taken from patent publication US20260242478A1 (published 2026).
